According to US20240000957A1 (published 2024):

T1: Human EphA7 Fc fusion (Human, UniProt Q15375 28-555, limits assumed)
T1 construct: Bought Fc fusion; also called R&D Systems 6756-A7; not shown: Fc of the bought fusion
T1 sequence (looked up): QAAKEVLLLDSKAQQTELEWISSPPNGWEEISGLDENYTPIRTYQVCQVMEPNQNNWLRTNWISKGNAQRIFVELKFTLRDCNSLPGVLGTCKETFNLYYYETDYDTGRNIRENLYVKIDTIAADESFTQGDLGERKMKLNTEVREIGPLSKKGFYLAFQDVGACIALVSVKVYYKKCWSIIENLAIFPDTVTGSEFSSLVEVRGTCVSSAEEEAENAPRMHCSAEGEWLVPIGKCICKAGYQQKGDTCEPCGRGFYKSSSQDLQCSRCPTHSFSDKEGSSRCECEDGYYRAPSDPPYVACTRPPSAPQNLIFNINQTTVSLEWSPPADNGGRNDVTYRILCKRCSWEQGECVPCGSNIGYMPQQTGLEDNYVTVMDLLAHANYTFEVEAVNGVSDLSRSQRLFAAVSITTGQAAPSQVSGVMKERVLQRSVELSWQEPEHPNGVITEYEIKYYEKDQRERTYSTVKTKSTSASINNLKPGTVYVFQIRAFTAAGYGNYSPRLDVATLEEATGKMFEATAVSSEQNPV

T2: Human EphA1 Fc fusion (Human, UniProt P21709 26-547)
T2 construct: Bought Fc fusion; also called Sino Biologics 15789-H02H; not shown: Fc of the bought fusion
T2 sequence (looked up): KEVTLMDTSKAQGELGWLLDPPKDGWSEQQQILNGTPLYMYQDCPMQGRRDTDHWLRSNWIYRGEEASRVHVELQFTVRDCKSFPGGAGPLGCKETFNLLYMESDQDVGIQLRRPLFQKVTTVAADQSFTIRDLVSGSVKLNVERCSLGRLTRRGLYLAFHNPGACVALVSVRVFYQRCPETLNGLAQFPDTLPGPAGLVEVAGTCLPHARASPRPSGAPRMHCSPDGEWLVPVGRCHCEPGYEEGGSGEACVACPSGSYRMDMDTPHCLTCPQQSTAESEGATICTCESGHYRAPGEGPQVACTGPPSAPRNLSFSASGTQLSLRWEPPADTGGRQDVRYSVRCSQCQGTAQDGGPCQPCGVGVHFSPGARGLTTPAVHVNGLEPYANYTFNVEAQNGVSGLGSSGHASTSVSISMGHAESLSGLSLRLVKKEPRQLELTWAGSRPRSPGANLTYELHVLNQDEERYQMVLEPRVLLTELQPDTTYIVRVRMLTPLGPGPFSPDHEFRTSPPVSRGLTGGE

T3: Human EphA3 Fc fusion (Human, UniProt P29320 21-541, limits assumed)
T3 construct: Bought Fc fusion; also called R&D Systems 6444-A3; not shown: Fc of the bought fusion
T3 sequence (looked up): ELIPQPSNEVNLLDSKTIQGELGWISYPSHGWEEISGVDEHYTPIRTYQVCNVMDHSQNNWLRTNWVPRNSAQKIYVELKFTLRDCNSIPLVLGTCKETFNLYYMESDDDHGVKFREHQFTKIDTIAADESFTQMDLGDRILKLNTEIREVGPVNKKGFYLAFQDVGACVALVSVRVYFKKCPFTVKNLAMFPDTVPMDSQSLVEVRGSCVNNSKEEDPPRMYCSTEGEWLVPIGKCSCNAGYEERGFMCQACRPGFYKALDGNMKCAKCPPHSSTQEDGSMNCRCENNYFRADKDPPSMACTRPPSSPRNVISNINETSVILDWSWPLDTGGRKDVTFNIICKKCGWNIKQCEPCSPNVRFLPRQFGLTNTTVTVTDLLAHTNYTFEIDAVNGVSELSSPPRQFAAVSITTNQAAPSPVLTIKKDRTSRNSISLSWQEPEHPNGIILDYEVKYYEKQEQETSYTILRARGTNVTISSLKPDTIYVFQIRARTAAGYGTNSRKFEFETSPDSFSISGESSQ

T4: Rat EphB1 Fc fusion (Rat, UniProt P09759 18-540, limits assumed)
T4 construct: Bought Fc fusion; also called R&D Systems 1596-B1; not shown: Fc of the bought fusion
T4 sequence (looked up): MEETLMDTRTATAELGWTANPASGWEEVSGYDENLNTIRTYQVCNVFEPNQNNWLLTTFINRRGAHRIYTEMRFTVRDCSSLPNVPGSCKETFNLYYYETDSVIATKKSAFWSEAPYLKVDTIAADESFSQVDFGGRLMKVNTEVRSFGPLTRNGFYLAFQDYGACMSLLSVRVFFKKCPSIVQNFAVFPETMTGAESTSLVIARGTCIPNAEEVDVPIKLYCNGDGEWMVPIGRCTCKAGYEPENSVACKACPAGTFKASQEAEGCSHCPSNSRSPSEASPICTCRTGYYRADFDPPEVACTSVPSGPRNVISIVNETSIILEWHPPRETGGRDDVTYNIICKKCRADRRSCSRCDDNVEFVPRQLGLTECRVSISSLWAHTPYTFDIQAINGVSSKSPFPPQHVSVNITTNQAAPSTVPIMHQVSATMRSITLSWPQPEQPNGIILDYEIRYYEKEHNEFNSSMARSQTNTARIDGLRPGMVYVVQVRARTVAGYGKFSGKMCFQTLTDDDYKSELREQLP


Tests used:
[1] = molecular target: T5, Human EphA4 Fc fusion (Human, UniProt P54764 20-547); test: SPR, Fc-tagged protein captured by anti-human IgG
T5 construct: Bought Fc fusion; also called Sino Biologics 11314-H03H; not shown: Fc of the bought fusion
T5 sequence (P54764 20-547 limits assumed): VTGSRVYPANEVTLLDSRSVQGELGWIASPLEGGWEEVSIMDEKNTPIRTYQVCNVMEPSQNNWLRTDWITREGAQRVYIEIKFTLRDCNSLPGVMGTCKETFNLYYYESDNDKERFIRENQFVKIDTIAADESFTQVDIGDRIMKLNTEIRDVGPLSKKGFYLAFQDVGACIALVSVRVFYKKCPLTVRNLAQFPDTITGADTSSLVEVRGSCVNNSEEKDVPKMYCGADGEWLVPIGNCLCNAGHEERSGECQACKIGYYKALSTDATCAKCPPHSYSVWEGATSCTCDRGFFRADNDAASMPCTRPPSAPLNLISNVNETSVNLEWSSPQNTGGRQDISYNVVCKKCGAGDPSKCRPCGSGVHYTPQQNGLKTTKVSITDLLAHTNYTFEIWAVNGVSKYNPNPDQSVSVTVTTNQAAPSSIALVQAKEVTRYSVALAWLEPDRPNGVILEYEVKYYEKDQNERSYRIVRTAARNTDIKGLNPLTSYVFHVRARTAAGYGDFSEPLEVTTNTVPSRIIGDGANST

[2] = molecular target: T1, Human EphA7 Fc fusion; test: SPR, Fc-tagged protein captured by anti-human IgG
[3] = molecular target: T2, Human EphA1 Fc fusion; test: SPR, Fc-tagged protein captured by anti-human IgG
[4] = molecular target: T3, Human EphA3 Fc fusion; test: SPR, Fc-tagged protein captured by anti-human IgG
[5] = molecular target: T4, Rat EphB1 Fc fusion; test: SPR, Fc-tagged protein captured by anti-human IgG
[6] = molecular target: T6, Rat EphA2 (ligand binding), C-terminal polyHis (Rat); test: FP competition vs Reference Compound C (Study 2)
T6 construct: In-house

[7] = molecular target: T7, Human EphA2 (Ecto), C-terminal polyHis (Human, UniProt P29317 24-537); test: FP competition vs Reference Compound C (Study 2)
T7 construct: extracellular domain; R&D systems 3035-A2 or in-house
T7 sequence (P29317 24-537): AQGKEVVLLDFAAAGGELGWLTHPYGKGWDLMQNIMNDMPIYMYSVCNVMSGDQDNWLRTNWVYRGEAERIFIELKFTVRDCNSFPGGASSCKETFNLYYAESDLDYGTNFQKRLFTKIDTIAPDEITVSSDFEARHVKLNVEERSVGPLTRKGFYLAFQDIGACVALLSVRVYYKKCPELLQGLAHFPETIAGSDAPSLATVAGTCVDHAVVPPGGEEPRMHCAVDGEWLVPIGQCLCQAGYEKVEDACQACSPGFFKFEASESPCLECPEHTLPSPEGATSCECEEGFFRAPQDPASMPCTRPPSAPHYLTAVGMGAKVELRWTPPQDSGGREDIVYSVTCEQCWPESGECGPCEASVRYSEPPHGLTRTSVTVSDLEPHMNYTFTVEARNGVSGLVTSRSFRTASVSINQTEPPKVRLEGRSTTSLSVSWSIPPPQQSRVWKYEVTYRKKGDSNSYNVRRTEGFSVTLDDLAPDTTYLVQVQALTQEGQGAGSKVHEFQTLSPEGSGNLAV

[8] = molecular target: T8, Mouse EphA2 (Ecto) (Mouse, UniProt Q03145 26-538); test: FP competition vs Reference Compound C (Study 2)
T8 construct: extracellular domain; Fluorescence polarisation assays; not shown: Fc fusion (R&D Systems 639-A2) or C-terminal polyHis (Sino Biological 50586-M08H)
T8 sequence (Q03145 26-538): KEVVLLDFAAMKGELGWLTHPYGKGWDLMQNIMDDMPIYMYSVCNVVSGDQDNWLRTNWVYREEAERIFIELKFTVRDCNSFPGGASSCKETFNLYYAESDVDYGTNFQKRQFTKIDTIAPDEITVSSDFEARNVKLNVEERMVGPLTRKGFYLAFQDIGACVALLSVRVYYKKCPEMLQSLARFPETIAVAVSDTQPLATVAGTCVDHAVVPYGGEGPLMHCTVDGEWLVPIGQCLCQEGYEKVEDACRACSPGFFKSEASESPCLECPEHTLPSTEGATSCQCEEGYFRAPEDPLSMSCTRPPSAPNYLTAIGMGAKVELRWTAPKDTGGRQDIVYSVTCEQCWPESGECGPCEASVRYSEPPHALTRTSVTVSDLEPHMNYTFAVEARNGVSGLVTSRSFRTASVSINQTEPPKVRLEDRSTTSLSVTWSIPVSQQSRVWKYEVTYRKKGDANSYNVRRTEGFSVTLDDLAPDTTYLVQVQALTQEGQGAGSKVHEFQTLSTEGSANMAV

Binder	binding result [1]	binding result [2]	binding result [3]	binding result [4]	binding result [5]	Ki [6] [nM]	Ki [7] [nM]	Ki [8] [nM]
AXDCPLVNPLCLHPGWTC (not fully specified; N-terminal (β-Ala)-Sar10 spacer precedes SEQ ID NO: 11; HArg (homoarginine) at residue 2 of SEQ ID NO: 11; three Cys cyclised on the TATA scaffold; DM1-SS(SO3H)- (DM1-SO3H-SPDB) on the N-terminal amine)	no binding (tested: 5 µM)	no binding (tested: 20 µM)	no binding (tested: 5 µM)	no binding (tested: 5 µM)	no binding (tested: 20 µM)			
AXDCPLVNPLCLHPGWTC (not fully specified; as BCY6014 (N-terminal (β-Ala)-Sar10; HArg; TATA scaffold on the 3 Cys) + ValCit-MMAE, Bicycle drug conjugate (BDC))						13.4	9.9	34.2
AXDCPLVNPLCLHPGWTC (not fully specified; N-terminal (β-Ala)-Sar10 spacer precedes SEQ ID NO: 11; HArg (homoarginine) at residue 2 of SEQ ID NO: 11; three Cys cyclised on the TATA scaffold; ValCit-MMAE (MMAE-PABC-Cit-Val-glutarate) on the N-terminal amine)	no binding (tested: 5 µM)	no binding (tested: 20 µM)	no binding (tested: 5 µM)	no binding (tested: 5 µM)	no binding (tested: 20 µM)			
AXDCPLVNPLCLHPGWTC (not fully specified; as BCY6014 (N-terminal (β-Ala)-Sar10; HArg; TATA scaffold on the 3 Cys) + DM1-SS(SO3H)-, Bicycle drug conjugate (BDC))						13.9	10.5	34.1
